± gives the standard deviation of the averaged measurements.
The sequences below were run on Saccharomyces cerevisiae (assay: protein stability index of tFT-peptide fusion (C-terminal peptide) (PSI (0-1 scale)); higher = more stable (slower turnover)). Conditions: genetic background: cdc34-1; temperature: 37 C.
Description: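 MPS profiling in S. cerevisiae of the tFT-X12 degron library: putative degron peptides plus stable controls, 12 aa, fused to the C-terminus of a sfGFP-mCherry timer. Cells are FACS-sorted into 8 mCherry/sfGFP bins and deep-sequenced. PSI runs from 0 (unstable) to 1 (stable). Backgrounds are wild type, das1Δ and doa10Δ at 30 °C, and wild type, das1Δ, cdc34-1 and cdc53-1 at 37 °C; 2-3 technical replicates each.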
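Further: PSI is a weighted mean of sequencing reads over stability bins, variants kept only with over 10 reads, mCherry proximal and sfGFP distal, peptide attached via GGGS linker.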

Sequence | protein stability index
FVMTYCLMSVSK | 0.0323 ± 0.018
FVRSVFFCVSVG | 0.498 ± 0.037
FVWAVGLVSASV | 0.507 ± 0.0064
FWLFAFVIRKHI | 0.286 ± 0.019
FYSLYLSLVCFN | 0.345 ± 0.015
GAVKCLVCLAVW | 0.282 ± 0.0035
GCGFSFFHIVVL | 0.111 ± 0.0053
GCLFMQVSLFWR | 0.0959 ± 0.027
GDINRNTRYLEK | 0.6705 ± 0.0048
GFGRRGQFGGTG | 0.86 ± 0.079
GFRVTTCASWIC | 0.557 ± 0.016
GFSEGRLTIPVY | 0.453 ± 0.025
GFVISSCRLFIL | 0.581 ± 0.052
GFVLLCFCCRTW | 0.28 ± 0.01
GGCYAGVAMRLI | 0.653 ± 0.02
GGGVGVVWVRLG | 0.429 ± 0.03
GGLFRWCVWRIV | 0.413 ± 0.02

Sequence | protein stability index
GGSWVRCLRTMG | 0.628 ± 0.019
GGVWLSVVSWVG | 0.156 ± 0.0086
GGWSLFCIVVVV | 0.111 ± 0.039
GIFVWWFWGCCG | 0.503 ± 0.016
GILILRLILCLF | 0.251 ± 0.027
GILLLLISRVVF | 0.278 ± 0.032
GILVVAASICYV | 0.451 ± 0.021
GKKKREWKKNRI | 0.6893 ± 0.00074
GLCLFLIGVFSV | 0.224 ± 0.0031
GLFAVWVVGVWC | 0.0437 ± 0.0013
GLFLLWWLGWLV | 0.63 ± 0.011
GLFLYCCLVSLL | 0.192 ± 0.031
GLLLVWAALGFV | 0.343 ± 0.033
GLVVWWLSGWLW | 0.249 ± 0.034
GMGHLSNVCLKT | 0.689 ± 0.008
GRLDHWNKHKYI | 0.528 ± 0.031

Same assay, conditions: genetic background: cdc53-1; temperature: 37 C

Sequence | protein stability index
FVMTYCLMSVSK | 0.0364 ± 0.002
FVRSVFFCVSVG | 0.531 ± 0.017
FVWAVGLVSASV | 0.527 ± 0.0082
FWLFAFVIRKHI | 0.404 ± 0.013
FYSLYLSLVCFN | 0.389 ± 0.0083
GAVKCLVCLAVW | 0.365 ± 0.054
GCGFSFFHIVVL | 0.113 ± 0.0037
GCLFMQVSLFWR | 0.164 ± 0.018
GDINRNTRYLEK | 0.7508 ± 0.0049
GFGRRGQFGGTG | 0.863 ± 0.016
GFRVTTCASWIC | 0.734 ± 0.011
GFSEGRLTIPVY | 0.4949 ± 0.0041
GFVISSCRLFIL | 0.632 ± 0.0072
GFVLLCFCCRTW | 0.421 ± 0.052
GGCYAGVAMRLI | 0.729 ± 0.026
GGGVGVVWVRLG | 0.678 ± 0.035
GGLFRWCVWRIV | 0.5292 ± 0.0032

Sequence | protein stability index
GGSWVRCLRTMG | 0.71 ± 0.024
GGVWLSVVSWVG | 0.238 ± 0.03
GGWSLFCIVVVV | 0.171 ± 0.0092
GIFVWWFWGCCG | 0.585 ± 0.051
GILILRLILCLF | 0.302 ± 0.047
GILLLLISRVVF | 0.373 ± 0.025
GILVVAASICYV | 0.48 ± 0.02
GKKKREWKKNRI | 0.733 ± 0.0097
GLCLFLIGVFSV | 0.313 ± 0.06
GLFAVWVVGVWC | 0.137 ± 0.052
GLFLLWWLGWLV | 0.645 ± 0.043
GLFLYCCLVSLL | 0.321 ± 0.0044
GLLLVWAALGFV | 0.4444 ± 0.0018
GLVVWWLSGWLW | 0.435 ± 0.05
GMGHLSNVCLKT | 0.765 ± 0.0086
GRLDHWNKHKYI | 0.687 ± 0.032

Same assay, conditions: genetic background: das1 deletion; temperature: 30 C

Sequence | protein stability index
FVMTYCLMSVSK | 0.0746 ± 0.02
FVRSVFFCVSVG | 0.396 ± 0.029
FVWAVGLVSASV | 0.402 ± 0.022
FWLFAFVIRKHI | 0.324 ± 0.033
FYSLYLSLVCFN | 0.301 ± 0.034
GAVKCLVCLAVW | 0.309 ± 0.032
GCGFSFFHIVVL | 0.147 ± 0.04
GCLFMQVSLFWR | 0.147 ± 0.038
GDINRNTRYLEK | 0.648 ± 0.029
GFGRRGQFGGTG | 0.607 ± 0.019
GFRVTTCASWIC | 0.612 ± 0.015
GFSEGRLTIPVY | 0.343 ± 0.04
GFVISSCRLFIL | 0.59 ± 0.022
GFVLLCFCCRTW | 0.287 ± 0.032
GGCYAGVAMRLI | 0.644 ± 0.021
GGGVGVVWVRLG | 0.618 ± 0.013
GGLFRWCVWRIV | 0.545 ± 0.025

Sequence | protein stability index
GGSWVRCLRTMG | 0.614 ± 0.016
GGVWLSVVSWVG | 0.0995 ± 0.024
GGWSLFCIVVVV | 0.179 ± 0.029
GIFVWWFWGCCG | 0.38 ± 0.023
GILILRLILCLF | 0.248 ± 0.033
GILLLLISRVVF | 0.229 ± 0.047
GILVVAASICYV | 0.355 ± 0.031
GKKKREWKKNRI | 0.645 ± 0.022
GLCLFLIGVFSV | 0.246 ± 0.039
GLFAVWVVGVWC | 0.139 ± 0.031
GLFLLWWLGWLV | 0.468 ± 0.022
GLFLYCCLVSLL | 0.25 ± 0.025
GLLLVWAALGFV | 0.28 ± 0.019
GLVVWWLSGWLW | 0.269 ± 0.023
GMGHLSNVCLKT | 0.639 ± 0.012
GRLDHWNKHKYI | 0.64 ± 0.0064

Same assay, conditions: genetic background: das1 deletion; temperature: 37 C

Sequence | protein stability index
FVMTYCLMSVSK | 0.0531 ± 0.038
FVRSVFFCVSVG | 0.548 ± 0.019
FVWAVGLVSASV | 0.561 ± 0.0067
FWLFAFVIRKHI | 0.511 ± 0.007
FYSLYLSLVCFN | 0.454 ± 0.0076
GAVKCLVCLAVW | 0.4138 ± 0.0017
GCGFSFFHIVVL | 0.256 ± 0.024
GCLFMQVSLFWR | 0.295 ± 0.023
GDINRNTRYLEK | 0.698 ± 0.0092
GFGRRGQFGGTG | 0.801 ± 0.048
GFRVTTCASWIC | 0.729 ± 0.015
GFSEGRLTIPVY | 0.5097 ± 0.0018
GFVISSCRLFIL | 0.669 ± 0.011
GFVLLCFCCRTW | 0.4828 ± 0.0044
GGCYAGVAMRLI | 0.714 ± 0.042
GGGVGVVWVRLG | 0.72 ± 0.024
GGLFRWCVWRIV | 0.6377 ± 0.0015

Sequence | protein stability index
GGSWVRCLRTMG | 0.7097 ± 0.0014
GGVWLSVVSWVG | 0.256 ± 0.012
GGWSLFCIVVVV | 0.306 ± 0.0031
GIFVWWFWGCCG | 0.567 ± 0.03
GILILRLILCLF | 0.385 ± 0.023
GILLLLISRVVF | 0.469 ± 0.0056
GILVVAASICYV | 0.52243 ± 0.00038
GKKKREWKKNRI | 0.711 ± 0.013
GLCLFLIGVFSV | 0.439 ± 0.022
GLFAVWVVGVWC | 0.219 ± 0.0058
GLFLLWWLGWLV | 0.651 ± 0.023
GLFLYCCLVSLL | 0.413 ± 0.018
GLLLVWAALGFV | 0.458 ± 0.006
GLVVWWLSGWLW | 0.428 ± 0.0078
GMGHLSNVCLKT | 0.726 ± 0.0093
GRLDHWNKHKYI | 0.783 ± 0.024
